# Like-named read-outs stand apart in the source and are kept apart here.
# T1: 4H850-bN
# T1 chain: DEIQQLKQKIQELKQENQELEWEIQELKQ
# T2: 4H3638-bN
# T2 chain: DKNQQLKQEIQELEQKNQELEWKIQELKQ
# T3: 4H3974-bN
# T3 chain: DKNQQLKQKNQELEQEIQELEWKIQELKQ
# T4: 4H906-bN
# T4 chain: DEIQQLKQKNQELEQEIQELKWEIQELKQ
# T5: 4H619-bN
# T5 chain: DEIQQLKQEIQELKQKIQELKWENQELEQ
# T6: 4H3631-bN
# T6 chain: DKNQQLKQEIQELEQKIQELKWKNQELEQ
# T7: 4H584-bN
# T7 chain: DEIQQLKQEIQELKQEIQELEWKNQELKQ
# T8: 4H3817-bN
# T8 chain: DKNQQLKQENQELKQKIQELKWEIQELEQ
# T9: 4H3414-bN
# T9 chain: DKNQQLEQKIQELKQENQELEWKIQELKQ
# T10: 4H570-bN
# T10 chain: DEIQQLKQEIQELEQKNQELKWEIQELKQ
# T11: 4H3414-AA
# T11 chain: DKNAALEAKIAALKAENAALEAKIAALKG
# T12: 4H2728-AA
# T12 chain: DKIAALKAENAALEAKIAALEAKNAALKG
# T13: 4H3129-AA
# T13 chain: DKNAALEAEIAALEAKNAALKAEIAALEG
# T14: 4H2760-AA
# T14 chain: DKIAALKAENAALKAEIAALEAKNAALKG
# T15: 4H2604-AA
# T15 chain: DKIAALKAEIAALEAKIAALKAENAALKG
# T16: 4H2580-AA
# T16 chain: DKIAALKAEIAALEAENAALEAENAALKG
# T17: 4H2699-AA
# T17 chain: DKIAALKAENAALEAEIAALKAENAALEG
# T18: 4H446-AA
# T18 chain: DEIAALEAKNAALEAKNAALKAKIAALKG
# T19: 4H380-AA
# T19 chain: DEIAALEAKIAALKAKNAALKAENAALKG
# T20: 4H3939-AA
# T20 chain: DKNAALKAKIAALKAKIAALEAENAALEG
# T21: 4H2961-AA
# T21 chain: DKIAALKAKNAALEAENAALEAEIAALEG
# T22: 4H3449-AA
# T22 chain: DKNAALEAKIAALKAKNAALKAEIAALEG
# T23: 4H3777-AA
# T23 chain: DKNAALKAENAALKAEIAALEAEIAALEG
# T24: 4H483-AA
# T24 chain: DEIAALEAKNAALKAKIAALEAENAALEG
# T25: 4H3974-AA
# T25 chain: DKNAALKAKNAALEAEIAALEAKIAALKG
# T26: 4H2903-AA
# T26 chain: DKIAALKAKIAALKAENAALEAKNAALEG
# T27: 4H3595-AA
# T27 chain: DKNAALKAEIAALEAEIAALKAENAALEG
# T28: 4H2947-AA
# T28 chain: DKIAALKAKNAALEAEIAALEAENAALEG
# T29: 4H432-AA
# T29 chain: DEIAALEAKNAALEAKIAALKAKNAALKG
# T30: 4H3629-AA
# T30 chain: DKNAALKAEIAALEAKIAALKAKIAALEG
# T31: 4H341-AA
# T31 chain: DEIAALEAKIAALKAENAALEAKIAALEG
# T32: 4H3915-AA
# T32 chain: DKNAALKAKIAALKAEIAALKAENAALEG
# T33: 4H464-AA
# T33 chain: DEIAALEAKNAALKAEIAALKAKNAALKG
# T34: 4H2774-AA
# T34 chain: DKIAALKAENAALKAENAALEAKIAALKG
# T35: 4H3049-AA
# T35 chain: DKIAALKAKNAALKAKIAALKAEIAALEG
# T36: 4H63-AA
# T36 chain: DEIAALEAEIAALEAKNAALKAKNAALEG
# T37: 4H3782-AA
# T37 chain: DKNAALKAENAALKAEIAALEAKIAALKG
# T38: 4H3619-AA
# T38 chain: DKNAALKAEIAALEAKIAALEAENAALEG
# T39: 4H324-AA
# T39 chain: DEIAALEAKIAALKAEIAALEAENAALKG
# T40: 4H3969-AA
# T40 chain: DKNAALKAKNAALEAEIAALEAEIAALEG
# T41: 4H3094-AA
# T41 chain: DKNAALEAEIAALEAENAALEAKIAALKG
# T42: 4H2621-AA
# T42 chain: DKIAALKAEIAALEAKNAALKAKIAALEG
# T43: P6SC1
# T43 chain: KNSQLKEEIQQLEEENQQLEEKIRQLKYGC
# T44: P8
# T44 chain: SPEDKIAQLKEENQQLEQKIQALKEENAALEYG
# T45: P6
# T45 chain: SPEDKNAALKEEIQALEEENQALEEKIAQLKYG
# T46: P6mS
# T46 chain: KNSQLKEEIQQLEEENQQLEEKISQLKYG
# T47: P7mS
# T47 chain: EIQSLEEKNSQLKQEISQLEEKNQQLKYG
# T48: P7
# T48 chain: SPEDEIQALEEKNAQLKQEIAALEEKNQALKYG
# T49: P9
# T49 chain: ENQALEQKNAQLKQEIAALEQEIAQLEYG
# T50: P8mS
# T50 chain: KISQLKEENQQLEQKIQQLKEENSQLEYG
# T51: P6SC2
# T51 chain: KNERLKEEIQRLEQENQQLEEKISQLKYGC
# Key:
# [1] = molecular target: T1, 4H850-bN; assay: two-hybrid library CCNG1;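 also: natural log of median RNA to DNA barcode read ratio; higher means stronger binding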
# [2] = molecular target: T2, 4H3638-bN; assay: two-hybrid library CCNG1;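 also: natural log of median RNA to DNA barcode read ratio; higher means stronger binding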
# [3] = molecular target: T3, 4H3974-bN; assay: two-hybrid library CCNG1;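 also: natural log of median RNA to DNA barcode read ratio; higher means stronger binding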
# [4] = molecular target: T4, 4H906-bN; assay: two-hybrid library CCNG1;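 also: natural log of median RNA to DNA barcode read ratio; higher means stronger binding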
# [5] = molecular target: T5, 4H619-bN; assay: two-hybrid library CCNG1;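 also: natural log of median RNA to DNA barcode read ratio; higher means stronger binding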
# [6] = molecular target: T6, 4H3631-bN; assay: two-hybrid library CCNG1;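 also: natural log of median RNA to DNA barcode read ratio; higher means stronger binding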
# [7] = molecular target: T7, 4H584-bN; assay: two-hybrid library CCNG1
# [8] = molecular target: T8, 4H3817-bN; assay: two-hybrid library CCNG1
# [9] = molecular target: T9, 4H3414-bN; assay: two-hybrid library CCNG1
# [10] = molecular target: T10, 4H570-bN; assay: two-hybrid library CCNG1
# [11] = molecular target: T11, 4H3414-AA; assay: two-hybrid library CCmax; settings: mean of both orientations
# [12] = molecular target: T12, 4H2728-AA; assay: two-hybrid library CCmax; settings: mean of both orientations
# [13] = molecular target: T13, 4H3129-AA; assay: two-hybrid library CCmax
# [14] = molecular target: T14, 4H2760-AA; assay: two-hybrid library CCmax; settings: mean of both orientations
# [15] = molecular target: T15, 4H2604-AA; assay: two-hybrid library CCmax; settings: mean of both orientations
# [16] = molecular target: T16, 4H2580-AA; assay: two-hybrid library CCmax
# [17] = molecular target: T17, 4H2699-AA; assay: two-hybrid library CCmax
# [18] = molecular target: T18, 4H446-AA; assay: two-hybrid library CCmax; settings: mean of both orientations
# [19] = molecular target: T19, 4H380-AA; assay: two-hybrid library CCmax; settings: mean of both orientations
# [20] = molecular target: T20, 4H3939-AA; assay: two-hybrid library CCmax; settings: mean of both orientations
# [21] = molecular target: T21, 4H2961-AA; assay: two-hybrid library CCmax; settings: mean of both orientations
# [22] = molecular target: T22, 4H3449-AA; assay: two-hybrid library CCmax; settings: mean of both orientations
# [23] = molecular target: T23, 4H3777-AA; assay: two-hybrid library CCmax; settings: mean of both orientations
# [24] = molecular target: T24, 4H483-AA; assay: two-hybrid library CCmax; settings: mean of both orientations
# [25] = molecular target: T25, 4H3974-AA; assay: two-hybrid library CCmax; settings: mean of both orientations
# [26] = molecular target: T26, 4H2903-AA; assay: two-hybrid library CCmax; settings: mean of both orientations
# [27] = molecular target: T27, 4H3595-AA; assay: two-hybrid library CCmax; settings: mean of both orientations
# [28] = molecular target: T28, 4H2947-AA; assay: two-hybrid library CCmax; settings: mean of both orientations
# [29] = molecular target: T29, 4H432-AA; assay: two-hybrid library CCmax; settings: mean of both orientations
# [30] = molecular target: T30, 4H3629-AA; assay: two-hybrid library CCmax; settings: mean of both orientations
# [31] = molecular target: T31, 4H341-AA; assay: two-hybrid library CCmax; settings: mean of both orientations
# [32] = molecular target: T32, 4H3915-AA; assay: two-hybrid library CCmax; settings: mean of both orientations
# [33] = molecular target: T33, 4H464-AA; assay: two-hybrid library CCmax; settings: mean of both orientations
# [34] = molecular target: T34, 4H2774-AA; assay: two-hybrid library CCmax; settings: mean of both orientations
# [35] = molecular target: T35, 4H3049-AA; assay: two-hybrid library CCmax; settings: mean of both orientations
# [36] = molecular target: T36, 4H63-AA; assay: two-hybrid library CCmax; settings: mean of both orientations
# [37] = molecular target: T37, 4H3782-AA; assay: two-hybrid library CCmax; settings: mean of both orientations
# [38] = molecular target: T38, 4H3619-AA; assay: two-hybrid library CCmax; settings: mean of both orientations
# [39] = molecular target: T39, 4H324-AA; assay: two-hybrid library CCmax; settings: mean of both orientations
# [40] = molecular target: T40, 4H3969-AA; assay: two-hybrid library CCmax; settings: mean of both orientations
# [41] = molecular target: T41, 4H3094-AA; assay: two-hybrid library CCmax; settings: mean of both orientations
# [42] = molecular target: T42, 4H2621-AA; assay: two-hybrid library CCmax
# [43] = molecular target: T43, P6SC1; assay: two-hybrid library CC1; settings: mean of both orientations
# [44] = molecular target: T44, P8; assay: two-hybrid library CC1; settings: mean of both orientations
# [45] = molecular target: T45, P6; assay: two-hybrid library CC1
# [46] = molecular target: T46, P6mS; assay: two-hybrid library CC1; settings: mean of both orientations
# [47] = molecular target: T47, P7mS; assay: two-hybrid library CC1; settings: mean of both orientations
# [48] = molecular target: T48, P7; assay: two-hybrid library CC1; settings: mean of both orientations
# [49] = molecular target: T49, P9; assay: two-hybrid library CC1; settings: mean of both orientations
# [50] = molecular target: T50, P8mS; assay: two-hybrid library CC1; settings: mean of both orientations
# [51] = molecular target: T51, P6SC2; assay: two-hybrid library CC1; settings: mean of both orientations
Binder,interaction score [11],interaction score [12],interaction score ([13]; mean of both orientations),interaction score [14],interaction score ([17]; mean of both orientations),interaction score [18],interaction score [19],interaction score [20],interaction score [21],interaction score [24],interaction score [26],interaction score [27],interaction score [30],interaction score [31],interaction score [33],interaction score [34],interaction score [35],interaction score [36],interaction score [37],interaction score [40],other results
DKNQQLEQKIQELKQENQELEWKIQELKQ [4H3414-bN],,,,,,,,,,,,,,,,,,,,,interaction score [1]: 0.132; interaction score [2]: -1.41; interaction score [3]: -0.178; interaction score [4]: -1.04; interaction score [5]: -2.07; interaction score [6]: -1.25; interaction score [7]: -1.04; interaction score [8]: -0.982; interaction score [9]: -0.0983; interaction score [10]: -0.223
DKIAALKAEIAALEAENAALEAENAALKG [4H2580-AA],-1.09,-1.69,-1.21,-1.47,-1.81,-1.11,1.77,-0.303,-1.82,-1.33,-0.221,-1.29,-0.787,0.477,-0.738,-1.28,-0.107,0.964,-1.52,-1.28,interaction score [15]: 1.41; interaction score [16]: 0.179; interaction score [22]: 0.308; interaction score [23]: -1.49; interaction score [25]: -1.2; interaction score [28]: -1.82; interaction score [29]: -1.04; interaction score [32]: -0.741; interaction score [38]: -1.26; interaction score [39]: 1.93; interaction score [41]: -1.36; interaction score ([42]; mean of both orientations): -0.357
DKIAALKAEIAALEAKNAALKAKIAALEG [4H2621-AA],2.21,1.6,,-0.432,-0.173,-1.41,-0.998,-0.531,-0.217,-1.55,1.71,0.312,0.71,2.39,-1.44,-0.116,0.214,-0.787,-1.63,-1.35,interaction score [13]: -1.64; interaction score [22]: -0.832; interaction score [23]: -1.64; interaction score [25]: -0.826; interaction score [28]: -1.47; interaction score [29]: -1.5; interaction score [32]: -1.18; interaction score [38]: 0.162; interaction score [39]: 1.33; interaction score [41]: 1.09; interaction score [42]: 1.1
DKIAALKAENAALEAEIAALKAENAALEG [4H2699-AA],-0.748,-0.707,1.24,,,-1.2,-1.08,-1.77,-1.89,0.687,-1.69,-1.96,-0.9,-1.58,2.17,-1.26,0.526,-1.27,-0.882,-1.41,interaction score [17]: -1.06
SPEDKNAALKEEIQALEEENQALEEKIAQLKYG [P6],,,,,,,,,,,,,,,,,,,,,interaction score [43]: -2.74; interaction score [44]: -2.37; interaction score [45]: -2.71; interaction score [46]: -2.76; interaction score [47]: -2.6; interaction score [48]: -0.929; interaction score [49]: -1.98; interaction score [50]: -2.62; interaction score [51]: -2.56
